Patent US20110151448A1 (GENEPROTECH, published 2011)
Side chains are listed from the residue outwards. Ends that are not written are not given here. hairpin oligonucleotide = not defined here

T1: RAD51 (UniProt Q08297 1-339, limits assumed)
T1 sequence (looked up): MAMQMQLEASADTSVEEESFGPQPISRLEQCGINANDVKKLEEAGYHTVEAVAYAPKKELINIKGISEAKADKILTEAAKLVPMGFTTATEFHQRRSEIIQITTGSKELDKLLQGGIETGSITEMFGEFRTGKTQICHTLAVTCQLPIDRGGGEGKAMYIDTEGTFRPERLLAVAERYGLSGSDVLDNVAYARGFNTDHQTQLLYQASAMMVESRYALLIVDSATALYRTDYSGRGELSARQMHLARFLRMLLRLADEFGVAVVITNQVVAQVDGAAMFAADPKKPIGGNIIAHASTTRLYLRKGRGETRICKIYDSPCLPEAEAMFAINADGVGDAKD


Tests used:
RAD51 [1] = target: T1, RAD51; experiment: cell-based or functional assay
RAD51 [2] = target: T1, RAD51; experiment: cell-based or functional assay; remark: listed apart in the source

increase in targeted homologous recombination relative to a conventional targeting vector (HPRT, ends not protected) (RAD51 [1]) [fold]	increase of targeted recombination compared with the control vector (HP-HPRT) (RAD51 [1]) [fold]	Fold increase of targeted recombination = ratio of control (HP-HPRT)/ratio of expt. vector (Exp 1, F9 cells) (RAD51 [2]) [fold]	Fold increase of targeted recombination = ratio of control (HP-HPRT)/ratio of expt. vector (Exp 2, F9 cells) (RAD51 [2]) [fold]	Fold increase of targeted recombination = ratio of control (HP-HPRT)/ratio of expt. vector (Exp 4, F9 cells) (RAD51 [2]) [fold]	Fold increase of targeted recombination = ratio of control (HP-HPRT)/ratio of expt. vector (Exp 3, F9 cells) (RAD51 [2]) [fold]	increase in the relative recombination frequency compared to control (HP-HPRT) (RAD51 [1]) [fold]	Fold increase of targeted recombination = ratio of control (HP-HPRT)/ratio of expt. vector (Exp 5, F9 cells) (RAD51 [2]) [fold]	Binder
3.5	2.6	2	2.2	2.2				RAD52 bait peptide (mouse RAD52 residues 294-344 with an added C-terminal cysteine), as attached to the targeting vector RAD52-HPRT-NLS (reading uncertain; also: conjugated via oligonucleotide to HPRT targeting DNA) peptide: VAAKHAAVLPAPPKHSTPVTAASELLQEKVVFPDNLEENLEMWDLTPDLEDC([sulfo‑SMCC-hairpin oligonucleotide])
					1.1			BRC5 negative bait peptide (mouse BRCA2 BRC5 repeat with an added C-terminal cysteine), as attached to the targeting vector BRC5-HPRT-NLS (reading uncertain; also: conjugated via oligonucleotide to HPRT targeting DNA) peptide: SSYPVTEDSALAYYTEDSRKTCVRESSLSKGRKWLREQGDKLGTRNTIKIEC([sulfo‑SMCC-hairpin oligonucleotide])
				2.2		1.5	2.3	BRC3 bait peptide (mouse BRCA2 residues 1391-1458 with an added C-terminal cysteine), as attached to the targeting vector BRC3-HPRT-NLS (reading uncertain; also: conjugated via oligonucleotide to HPRT targeting DNA) peptide: ERNIKEFNISFQTASGKNTRVSKESLNKSVNIFNRETDELTVISDSLNSKILHGINKDKMHTSSHKKAC([sulfo‑SMCC-hairpin oligonucleotide])
